The source of these data is patent publication US12551583B2, “Radiolabeled ligands for targeted PET/SPECT imaging and methods of their use” (MEMORIAL SLOAN KETTERING CANCER CENTER, priority 2016, dated 2026).

The nature of one series: in vivo. To be noted: female, BALB/c, mouse, iv, total radioactivity; for tissue uptake at 24 h: 4T1 tumoral uptake; for tissue uptake at 4 h: biodistribution, Tumor (4T1 tumoral uptake). The method, then:
(§1) 4T1 orthotopic BALB/c mouse model. The cells were removed from the flasks, concentrated, and resuspended in minimal media for cell counting. The cells were then diluted to contain approximately 1 million cells in 30 μL of media (for orthotopic allografts). Following an MSKCC Institutional Animal Care and Use Committee approved protocol, 8-10 week old BALB/c mice (Charles River Laboratories, Wilmington, MA) were surgically implanted with one million 4T1 cancer cells into the first or the last mammary fat pad of the right side of the animal using aseptic surgical techniques and sterile staple closures while the mice were under anesthetic. Additionally, mice were given injections of meloxicam (24 h pain killer) in the scruff and bupivacaine intradermally prior to surgical incisions. One day post surgery, the mice were again given meloxicam and checked to ensure that the closure was healing. Two and three days post surgery, the mice were checked to ensure that the animals were healthy and recovering well from the surgery. Five to seven days post surgery, the staples were removed. Five to nine days post surgery, the mice were injected with 50-75 μCi (0.9-0.4 nmol) of the respective radiopharmaceutical for in vivo biodistribution or 500-600 μCi (9-11 nmol) for in vivo imaging. The mice receiving ^64Cu-NOTA-pHLIP were sacrificed at 1, 2, 4, 12, 24, 36, and 48 h; the mice receiving [^18F]—AlF-NOTA-pHLIP were sacrificed at 0.5, 1, 2, 4, 6 and 8 h. The 4T1 tumors in this study were purposely used 5-9 days after inoculation to ensure lower tumoral pH. Animal models. Animal studies were conducted according to MSKCC IACUC-approved animal protocol. 4T1 (orthotopic breast cancer allografts of 1×10^6 cells surgically implanted in the mammary fat pad) and B16-F10 (orthotopic melanoma allografts of 1×10^5 cells injected intradermally on the shoulder) tumors were orthotopically inoculated in media in female BALB/c and C57Bl/6 mice (Charles River Laboratories (CRL)), respectively. Additionally, PC3 (3×10^6 cells) or LNCaP (3-6×10^6 cells) tumors were subcutaneously xenografted on the shoulder of athymic nude male mice (CRL). Mice were used once tumor volumes were approximately 90-300 mm^3. In vivo animal PET imaging and biodistribution. Mice were injected with radiolabeled NOTA-pHLIP derivatives i.v. (500-700 μCi/mouse for PET or SPECT imaging studies and 25-100 μCi/mouse for biodistribution studies). All injections were less than 200 μL with <10% EtOH in sterile PBS. PET images were obtained with the mice under anesthesia in an Inveon PET-CT or microPET Focus 120 (Siemens) at 0.5-48 h p.i. All images were analyzed using ASIPro VM (Concorde Microsystems). SPECT images were obtained with the mice under anesthesia in a NanoSPECT/CT Plus at 4-24 h p.i. All SPECT images were reconstructed using HiSPECT and analyzed using InVivoScope. Dissections for ex vivo biodistribution were performed on mice after CO2 asphyxiation or cervical dislocation while anesthetized at reported time points. Weight of the syringe prior to injection and after injection was used to determine the mass of injectate. Activity of the syringe prior to injection and after injection was used to determine the percent of injectate administered. The mass injected was corrected by the percent of radioactivity injected. Four to five aliquots (10 μL) were weighed and counted as internal standards for each study. All of the collected organs were counted using an automatic gamma counter (Wizard 3″, PerkinElmer, Waltham, MA). The total injected dose was found as the mass injected dose×fraction radioactivity injected×internal standard average counts/g. The percent injected dose (% ID) was determined as the counts for the tissue×100/total injected dose. The % ID/g was calculated as the % ID/tissue weight. The average and standard deviation of the % ID and % ID/g was determined using normal methods (n−1) for each set of mice.

In series [1] the test system is 4T1 orthotopic tumor-bearing BALB/c mice. As to the kind of experiment: in vivo. To be noted: mouse. The protocol: as §1

For the compound `CC(C)C[C@@H](NC(=O)[C@@H](Cc1ccc(O)cc1)NC(=O)[C@@H](C)NC(=O)[C@@H](CCCNC(=N)N)NC(=O)[C@@H](Cc1c[nH]c2ccccc12)NC(=O)[C@H]1CCCN1C(=O)[C@@H](CC(N)=O)NC(=O)[C@@H](CCC(N)=O)NC(=O)[C@@H](CC(=O)O)NC(=O)[C@@H](CC(=O)O)NC(=O)[C@@H](C)N)C(=O)N[C@H](CC(=O)O)C(=O)N[C@H](CC(C)C)C(=O)N[C@H](CC(C)C)C(=O)N[C@H](Cc1ccccc1)C(=O)N1CCC[C@@H]1C(=O)N[C@@H](C(=O)N[C@H](CC(=O)O)C(=O)N[C@@H](C(=O)N[C@H](CC(C)C)C(=O)N[C@H](CC(C)C)C(=O)N[C@H](CC(C)C)C(=O)N[C@H](CC(=O)O)C(=O)N[C@H](CC(C)C)C(=O)N[C@H](CC(C)C)C(=O)N[C@H](Cc1c[nH]c2ccccc12)C(=O)N[C@H](CSC1CC(=O)N(CCNC(=O)CN2CCN(CC(=O)O)CCN(CC(=O)O)CC2)C1=O)C(=O)NCC(=O)O)[C@H](C)O)[C@H](C)O` (some centres unmarked) [^67Ga-NO2A-C^27Var3, metal not drawn], in “in vivo” (50 uCi), the tissue uptake (commonly the share of the injected amount in each gram of the tissue) at 24 h was 23 ± 5 %ID/g. For the same compound, the tissue uptake at 4 h in “in vivo” was 20.5 ± 1 %ID/g.
The corresponding values for `CC(C)C[C@@H](NC(=O)[C@@H](CC(C)C)NC(=O)[C@@H](CC(=O)O)NC(=O)[C@@H](CC(C)C)NC(=O)[C@@H](CC(C)C)NC(=O)[C@@H](CC(C)C)NC(=O)[C@H](NC(=O)[C@@H](CC(=O)O)NC(=O)[C@H](NC(=O)[C@H]1CCCN1C(=O)[C@@H](Cc1ccccc1)NC(=O)[C@@H](CC(C)C)NC(=O)[C@@H](CC(C)C)NC(=O)[C@@H](CC(=O)O)NC(=O)[C@@H](CC(C)C)NC(=O)[C@@H](Cc1ccc(O)cc1)NC(=O)[C@@H](C)NC(=O)[C@@H](CCCNC(=N)N)NC(=O)[C@@H](Cc1c[nH]c2ccccc12)NC(=O)[C@H]1CCCN1C(=O)[C@@H](CC(N)=O)NC(=O)[C@@H](CCC(N)=O)NC(=O)[C@@H](CC(=O)O)NC(=O)[C@@H](CC(=O)O)NC(=O)[C@@H](CS)NC(=O)[C@@H](C)NC(=S)Nc1ccc(CC2CN(CC(=O)O)CCN(CC(=O)O)CCN2CC(=O)O)cc1)[C@H](C)O)[C@H](C)O)C(=O)N[C@H](Cc1c[nH]c2ccccc12)C(=O)O` (single isomer, unassigned) [^67Ga-NOTA-Var3, metal not drawn] are 2.93 ± 0.11 %ID/g and 2.05 ± 0.17 %ID/g.
With `CC(C)C[C@@H](NC(=O)[C@@H](CCC(=O)O)NC(=O)[C@@H](CC(C)C)NC(=O)[C@@H](CC(C)C)NC(=O)[C@@H](CC(C)C)NC(=O)[C@H](NC(=O)[C@@H](CCC(=O)O)NC(=O)[C@H](NC(=O)[C@H]1CCCN1C(=O)[C@@H](Cc1ccccc1)NC(=O)[C@@H](CC(C)C)NC(=O)[C@@H](Cc1c[nH]c2ccccc12)NC(=O)[C@@H](CCC(=O)O)NC(=O)[C@@H](CC(C)C)NC(=O)[C@@H](Cc1ccc(O)cc1)NC(=O)[C@@H](CCCNC(=N)N)NC(=O)[C@@H](C)NC(=O)[C@@H](Cc1c[nH]c2ccccc12)NC(=O)[C@H]1CCCN1C(=O)[C@@H](CC(N)=O)NC(=O)[C@@H](CCC(N)=O)NC(=O)[C@@H](CCC(=O)O)NC(=O)[C@@H](CCC(=O)O)NC(=O)[C@@H](CS)NC(=O)[C@@H](C)NC(=S)Nc1ccc(CC2CN(CC(=O)O)CCN(CC(=O)O)CCN2CC(=O)O)cc1)[C@H](C)O)[C@H](C)O)C(=O)O` (single isomer, unassigned) [[^18F]—AlF-NOTA-Var7], in series [1], the kidneys-to-large intestine ratio is recorded as 0.55±0.19. Moreover, in series [1] (iv, 4 h), the “biodistribution, Blood” value is reported as 2.292 ± 0.277 % ID/g; the “biodistribution, Bone” value came out at 0.571 ± 0.202 % ID/g; the “biodistribution, Brain” value stood at 0.118 ± 0.011 % ID/g; the “biodistribution, Heart” value stood at 0.78 ± 0.06 % ID/g. For the same compound, in series [1] (iv, 4 h), the “biodistribution, Kidneys” value turned out to be 7.759 ± 0.658 % ID/g; the “biodistribution, L. intestine” value is 22.08 ± 6.02 % ID/g; the “biodistribution, Liver” value came to 1.089 ± 0.066 % ID/g; the “biodistribution, Lungs” value is on record as 2.325 ± 0.212 % ID/g. In series [1] (iv, 4 h), the “biodistribution, Muscle” value is recorded as 0.325 ± 0.073 % ID/g; the “biodistribution, Pancreas” value is on record as 0.373 ± 0.051 % ID/g; the “biodistribution, S. intestine” value stood at 0.776 ± 0.196 % ID/g; the “biodistribution, Skin” value is recorded as 1.377 ± 0.148 % ID/g. In addition, in series [1] (iv, 4 h), the “biodistribution, Spleen” value came out at 0.485 ± 0.029 % ID/g; the “biodistribution, Stomach” value came out at 0.593 ± 0.153 % ID/g; the “biodistribution, Tumor (4T1 tumoral uptake)” value is recorded as 1.105 ± 0.125 % ID/g.
In turn, `CC(C)C[C@@H](NC(=O)[C@@H](CC(C)C)NC(=O)[C@@H](CC(=O)O)NC(=O)[C@@H](CC(C)C)NC(=O)[C@@H](CC(C)C)NC(=O)[C@@H](CC(C)C)NC(=O)[C@H](NC(=O)[C@@H](CC(=O)O)NC(=O)[C@H](NC(=O)[C@H]1CCCN1C(=O)[C@@H](Cc1ccccc1)NC(=O)[C@@H](CC(C)C)NC(=O)[C@@H](CC(C)C)NC(=O)[C@@H](CC(=O)O)NC(=O)[C@@H](CC(C)C)NC(=O)[C@@H](Cc1ccc(O)cc1)NC(=O)[C@@H](C)NC(=O)[C@@H](CCCNC(=N)N)NC(=O)[C@@H](Cc1c[nH]c2ccccc12)NC(=O)[C@H]1CCCN1C(=O)[C@@H](CC(N)=O)NC(=O)[C@@H](CCC(N)=O)NC(=O)[C@@H](CC(=O)O)NC(=O)[C@@H](CC(=O)O)NC(=O)[C@@H](CSC1CC(=O)N(CCNC(=O)CN2CCN(CC(=O)O)CCN(CC(=O)O)CC2)C1=O)NC(=O)[C@@H](C)N)[C@H](C)O)[C@H](C)O)C(=O)N[C@H](Cc1c[nH]c2ccccc12)C(=O)O` (single isomer, unassigned) [^67Ga-NO2A-cysVar3, metal not drawn] registered a 4T1 tumoral uptake in series [1] (female, BALB/c, iv, 50 uCi, 24 h) of 26±4 % ID/g. In series [1] (female, BALB/c, iv, 4 h), the “biodistribution, Tumor (4T1 tumoral uptake)” value turned out to be 12±3 % ID/g. In addition, the tissue uptake at 24 h in “in vivo” (500 uCi) was found to be 34 ± 3 %ID/g.
